Measured values taken from patent US20230203177A1 (Bristol-Myers Squibb, published 2023).

How the values were obtained:
[1] = target: human CD40 on primary human tonsillar B cells (human, UniProt P25942 21-277); assay: cell-based or functional assay
[2] = target: T1, soluble human CD40 extracellular domain (human, UniProt P25942 21-193); assay: SPR, purified Ab on protein A, 6 concentrations of hCD40 ECD
T1 construct: Produced in house; also called hCD40; soluble hCD40 extracellular domain
Procedure: Additionally, to more accurately define the dissociation rate (kd), a longer dissociation time of 360 seconds (s) was used as opposed to the shorter 180 s dissociation that had been used in the supernatant screening experiment.
CD40 binding SPR: SPR studies of the purified antibodies were conducted on BIAcore™ T200 instrument (GE Healthcare, Chicago Ill.). A Series S Protein A sensor chip (GE Healthcare, Chicago Ill.) was equilibrated with SPR running buffer of 10 mM NaPO₄, 130 mM NaCl, 0.05% tween 20, (PBS-T) pH 7.2 at 25° C. The purified antibody samples were diluted to 3 μg/ml in PBS-T and captured on the protein A surface for 30 s at 10 μl/min Binding of 3.91, 7.81, 15.6, 31.3, 62.5, and 125 nM human CD40 extracellular domain (produced in house) was evaluated using association time of 180 s at 30 μl/min, followed by a dissociation time of 360 s at 30 μl/min Regeneration between cycles was accomplished using two 15 s injections of 10 mM glycine pH 1.5. […] Data were analyzed using BIAcore™ T200 evaluation software by fitting to a 1:1 Langmuir model.

[3] = target: T1, soluble human CD40 extracellular domain; assay: SPR, Ab captured from supernatant on protein A, hCD40 ECD analyte
In short: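 Biacore T200, 25 °C, PBS-T pH 7.2; antibodies (3 μg/ml, supernatants titre-normalised) captured on protein A chip 30 s. Human CD40 ECD analyte (5 and 50 nM, or 50 and 500 nM), 180 s association and 180 s dissociation at 30 μl/min; 1:1 Langmuir fit.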

[4] = target: T1, soluble human CD40 extracellular domain; assay: SPR, antibody captured from supernatant on protein A chip, soluble hCD40 ECD at 5 and 50 nM (summary table of the 16 chosen antibodies)

T1 sequence (P25942 21-193 limits assumed): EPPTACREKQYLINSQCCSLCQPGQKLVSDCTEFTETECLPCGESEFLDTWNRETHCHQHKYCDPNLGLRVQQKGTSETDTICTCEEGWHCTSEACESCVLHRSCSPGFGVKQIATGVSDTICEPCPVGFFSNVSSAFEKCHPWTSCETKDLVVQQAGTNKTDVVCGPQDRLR
Chain of human CD40 on primary human tonsillar B cells (P25942 21-277 limits assumed): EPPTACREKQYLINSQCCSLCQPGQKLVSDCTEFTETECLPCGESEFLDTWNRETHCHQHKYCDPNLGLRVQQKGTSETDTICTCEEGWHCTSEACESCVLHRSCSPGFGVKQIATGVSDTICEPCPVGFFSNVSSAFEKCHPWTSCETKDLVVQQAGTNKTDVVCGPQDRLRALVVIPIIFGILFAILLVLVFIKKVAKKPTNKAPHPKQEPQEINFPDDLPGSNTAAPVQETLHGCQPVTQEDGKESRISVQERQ

Binder | IC50, inhibition of tonsillar human B cell proliferation stimulated by IZ-hCD40L trimer [1] | IC50, inhibition of tonsillar human B cell proliferation stimulated by hCD40L expressing CHO cells [1] | Kd [2] | koff [2] | kon [2] | Kd [3] | Kd [4]
M47 (HC-R67Q / LC-K45E) (antibody, human IgG1, kappa, V domains shown, IgG1-P238K; also called HC15/LC3) VH: QVQLVQSGAEVKKPGSSVKVSCKASGYAFTSYWMHWVRQAPGQGLEWMGQINPTTGRSQYNEKFKTQVTITADKSTSTAYMELSSLRSEDTAVYYCARWGLQPFAYWGQGTLVTVSS VL: DIQMTQSPSFLSASVGDRVTITCKASQDVSTAVAWYQQKPGKAPELLIYSASYRYTGVPSRFSGSGSGTDFTLTISSLQPEDFATYYCQQHYSTPWTFGGGTKVEIKR | 0.4 ng/mL | 54.7 ng/mL | 2.2 nM | 0.00074 s⁻¹ | 330000 M⁻¹ s⁻¹ | 3.2 nM | 3.2 nM
M38 (HC-K12V,K19S,K23A / LC-K45E) (antibody, human IgG1, kappa, V domains shown, IgG1-P238K; also called HC6/LC3) VH: QVQLVQSGAEVVKPGSSVSVSCAASGYAFTSYWMHWVRQAPGQGLEWMGQINPTTGRSQYNEKFKTRVTITADKSTSTAYMELSSLRSEDTAVYYCARWGLQPFAYWGQGTLVTVSS VL: DIQMTQSPSFLSASVGDRVTITCKASQDVSTAVAWYQQKPGKAPELLIYSASYRYTGVPSRFSGSGSGTDFTLTISSLQPEDFATYYCQQHYSTPWTFGGGTKVEIKR | 7.2 ng/mL | 181 ng/mL | 2.8 nM | 0.00077 s⁻¹ | 280000 M⁻¹ s⁻¹ | 3.9 nM | 3.9 nM
M36 (HC-K12E / LC-K45E) (antibody, human IgG1, kappa, IgG1-P238K; also called HC4/LC3) heavy: not shown light: DIQMTQSPSFLSASVGDRVTITCKASQDVSTAVAWYQQKPGKAPELLIYSASYRYTGVPSRFSGSGSGTDFTLTISSLQPEDFATYYCQQHYSTPWTFGGGTKVEIKRTVAAPSVFIFPPSDEQLKSGTASVVCLLNNFYPREAKVQWKVDNALQSGNSQESVTEQDSKDSTYSLSSTLTLSKADYEKHKVYACEVTHQGLSSPVTKSFNRGEC | 2.6 ng/mL | 47.7 ng/mL | 2.6 nM | 0.00078 s⁻¹ | 300000 M⁻¹ s⁻¹ | 3.4 nM | 3.4 nM
M54 (HC-K12V,K19S,K23A / LC-K45Q,R54Q,R61Q) (antibody, human IgG1, kappa, V domains shown, IgG1-P238K; also called HC6/LC4) VH: QVQLVQSGAEVVKPGSSVSVSCAASGYAFTSYWMHWVRQAPGQGLEWMGQINPTTGRSQYNEKFKTRVTITADKSTSTAYMELSSLRSEDTAVYYCARWGLQPFAYWGQGTLVTVSS VL: DIQMTQSPSFLSASVGDRVTITCKASQDVSTAVAWYQQKPGKAPQLLIYSASYQYTGVPSQFSGSGSGTDFTLTISSLQPEDFATYYCQQHYSTPWTFGGGTKVEIKR | 3.3 ng/mL | 201 ng/mL | 2.3 nM | 0.00075 s⁻¹ | 330000 M⁻¹ s⁻¹ | 3 nM | 3 nM
M13 (HC-E46K,E62K / LC-wt) (antibody, human IgG1, kappa, IgG1-P238K; proof of concept control with more positive charge; also called HC13/LC1) heavy: not shown light: DIQMTQSPSFLSASVGDRVTITCKASQDVSTAVAWYQQKPGKAPKLLIYSASYRYTGVPSRFSGSGSGTDFTLTISSLQPEDFATYYCQQHYSTPWTFGGGTKVEIKRTVAAPSVFIFPPSDEQLKSGTASVVCLLNNFYPREAKVQWKVDNALQSGNSQESVTEQDSKDSTYSLSSTLTLSKADYEKHKVYACEVTHQGLSSPVTKSFNRGEC | 3.3 ng/mL | 20.8 ng/mL | 8.4 nM | 0.00068 s⁻¹ | 81000 M⁻¹ s⁻¹ | 8 nM | 8 nM
M37 (HC-K12E,K13Q,K23E / LC-K45E) (antibody, human IgG1, kappa, IgG1-P238K; also called HC5/LC3) heavy: not shown light: DIQMTQSPSFLSASVGDRVTITCKASQDVSTAVAWYQQKPGKAPELLIYSASYRYTGVPSRFSGSGSGTDFTLTISSLQPEDFATYYCQQHYSTPWTFGGGTKVEIKRTVAAPSVFIFPPSDEQLKSGTASVVCLLNNFYPREAKVQWKVDNALQSGNSQESVTEQDSKDSTYSLSSTLTLSKADYEKHKVYACEVTHQGLSSPVTKSFNRGEC | 0.9 ng/mL | 129 ng/mL | 3.3 nM | 0.00084 s⁻¹ | 250000 M⁻¹ s⁻¹ | 4.1 nM | 4.1 nM
M49 (HC-wt / LC-K45Q,R54Q,R61Q) (antibody, human IgG1, kappa, IgG1-P238K; also called HC1/LC4) heavy: not shown light: DIQMTQSPSFLSASVGDRVTITCKASQDVSTAVAWYQQKPGKAPQLLIYSASYQYTGVPSQFSGSGSGTDFTLTISSLQPEDFATYYCQQHYSTPWTFGGGTKVEIKRTVAAPSVFIFPPSDEQLKSGTASVVCLLNNFYPREAKVQWKVDNALQSGNSQESVTEQDSKDSTYSLSSTLTLSKADYEKHKVYACEVTHQGLSSPVTKSFNRGEC | 0.7 ng/mL | 67.2 ng/mL | 2.2 nM | 0.0007 s⁻¹ | 320000 M⁻¹ s⁻¹ | 3 nM | 3 nM
